Source: the supplement of paper PMC12455559

Experiment: purified protein yield per well (BCA); higher = higher soluble expression
In short: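 Expression was done in E. coli C41(DE3), using 2 mL autoinduction cultures with 100 µg/mL kanamycin incubated at 37 °C for 2 h and at 18 °C for 40 h. Protein was purified on Ni-charged magnetic beads and released by SUMO protease cleavage. Yield of purified protein per well was measured with the Pierce Rapid Gold BCA kit; values below 25 ug (0.1 mg/mL) are below detection.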

For “IRETRVSSSVRGFGGGTIYYPTGTSGTMGAIVVIPGFVSPESSIAWWGPKLASHGFVVMTIATNRTTDQPSSRATQINAALDYLISQNSTSGSPVRNMIDTDRLGVMGWSMGGGGTLRVASQNRLKAAIPLAPYDTISFRNVDAPTLIFGCESDTVAPVRNHASPFYNQIPAGTDKAFVELNGGSHTCANGGNQYLSLIHI [ESM057]”, the “purified protein yield per well” value was < 25 µg.
With “ITPPPDDDGNNGGGDTCQQDCGFERGPNPTVASLESRSGPFSVRTSSVSSRVSGFGGGTIHYPTGQTGTMGAIVVIPGFVSAESSIAWWGTQLAAHGFVVMTIDTNSGTDQPPSRARQINAALDYLVSQNTASGSPVRGMIDPSRLGVAGWSMGGGGTLRVATEGRIKAAMPLAPWDTGSTQFRSVKAQTLIFACESDAIAPVNSHASPFYNALPNNINKAFVEISRGSHYCANGGNSNNSLLSRLGVSWMKLHLDQDQRYNQFICGPRHESDRSISEYRGNCSN [ESM115]” the “purified protein yield per well” value was < 25 µg.
With “IYTMVDTLSLHDALPISQYRKIPDSKYHLFIKRFYKGFLNLSLWEVRYMSNRLFRARRTVFSVLILFAFMISFVAAIPGVSYASPPIVRYDYAPGKYSGNGPYSYSTYQLPGWSHGATVYYPTNASAPFSGIVFCPPYTGTQIMFRDWGPFFASHGIVLVTMDTSSILISVDERAVEQRTVLNLLKAENSRSGSPLYQKLDTDRVGAMGWSMGGGATWINSAEYPGLKTAMSLAGHNLTAININSKGFGTQCPTIIFCGALDTTYLGGMLQSETVYYNIPSGVPKVYYEVGTAGHFVWGGPTDANDHVAELALAFQKTFLDGDDRWEGFIEKPRFDYLSTFRSRN [TEP185]” the “purified protein yield per well” value was < 25 µg.
In the case of “LKADGPYAVSSQTVKGNGFGAGTVYSPNTPGKYAVVAVCPGFVSAESSMTAISKRLATHGFVVVTIATNTLFDFPSSRATQLLAALKTVTALTTGPVAGKMDTSRQGVSGWSMGGGGTLEAAGATPGLVSAVAYAPWDTSTTKMKVNKVPVAIIGGSADTVASVSAHSQKFYDAIPATTPKMLPVINGADHFFPTKASEPASYHNI [ESM072]”, the “purified protein yield per well” value is reported as < 25 µg.
With “LQMQSLINIGPLQISEINESMGLRNGTDYNGATIYYPINQNNLSSIVLVPGFMNTELTIQNWGPFFASHGIITMTIGTNSLTDTHVQRRDALFDAIISLKQENQRIASPLFGKLDTSSIAVGGFSKGGGGAQLLAKFDPSLKAVVALYPWLENVTASDLEHTVPLIIISGQLDAIAPPFLHADIQYNLTPMTTKKLKYEVAFASHDAISGPYAGNGEVGARVLSWLNTFLVTDSCYCPLLLEQPITSSSYTTNIVCSNLFTNIYESNKSYSKEIIEIRDLYGRKVKFSNSRILIYIYNDGSYEKKITL [TEP016]” the “purified protein yield per well” value was < 25 µg.
With “LTLDDLKKDGPYAISAQTIPASGFGKGTVYSPNTPGKYALVAVCPGFVSAESSITEISKRLATHGFVVVTIGTKTLLDFPSSRASQLLAALKAASAVTTGPAAGKIDVTRQVVAGWSMGGGGTLEAAAATPGLKAAVAYAPWNLSSSKYKSITVPSAIIGGTADSVAPVSSHSQPFYNAIPATTPKLLGVIQGADHFFPNKAAEPASYTNIAWVKRFADGDTQYGVFLRGQDAAWASFVSTGPF [ESM117]” the “purified protein yield per well” value was < 25 µg.
With “LTLDDLKKDGPYAVSSQTIPGSGFGKGTIYSPNAAGKYALVAVVPGFVSAESSMTEISKRLATHGFVVVTIGTKTLLDFPSSRASQLLAALKAASAVTTGPVAGKIDVTRQVVSGWSMGGGGTLEAAASTPGLKAAVAYAPWNLSSTKYKAITVPSAIIGGTADTVASVSAHSQPFYNAIPATTRKLLGVIQGADHFFPNKAVDPASYTNIAWVKRFADGNTAYAPFLAGQDAAWASFVSTGPF [ESM087]” the “purified protein yield per well” value was < 25 µg.
For “LWLGLGGVLSLIGFVVIGVETNSRTDYDVARGTQLLAALDYLTQQSPVRNRVDPNRLGVIGHSMGGGGVVYATEHRPALKAAVALAPFSPSQNMSTDTVPTMVMAGQNDTVVTPSYLSGLYATMPAATQSDFLQIAGADHVYYTHPNSVEMRILIPWIKTFLDNDTRYTQVICPGLAL [TEP112]”, the “purified protein yield per well” value was < 25 µg.
In the case of “MAAGGLVAAQAAGAQAAPAQAAAANPYERGPAPTEASIEAARGSYAVSQTTVSSLSVSGFGGGTVYYPTSTSDGTFGAVVISPGYTAYQSSIAWLGPRLASQGFVVFTIDTLTTLDQPDSRGRQLLAALDYLTQSSSVRTRIDSSRLGVMGHSMGGGGTLEAAKSRPSLQAAIPLTGWNLDKTWPEIKTPTLIVGADGDTIAPVATHSEPFYESLPSSLDKAYLELNGATHFTPNSSNTTIAKYSISWLKRFIDNDTRYEQFLCPLPRPSLTIDEYRGNCPHTS [TEP052]”, the “purified protein yield per well” value is reported as < 25 µg.
For “MASITNPGPYSVSLLIEGVDDIRNGPDYDGATIYYPSNGVPPYAGIAIIPGYCGVETDIENWGPFYASHGIIAITLGTNNPCADWPAVRALALLDAIETIKSENTREGSPLNGKVDVNSFAVSGWSMGGGGAELAASIDPSLKAVVGLCPWLDLNGFETSDLIHDVPVLIFTGQNDDIAGSAEYGYMHYTNTPNSTDKLYFEIENEGHEAANAPNMAGGEKGIYALSWLTI [TEP051]”, the “purified protein yield per well” value was < 25 µg.
With “MASVAAQYGPFATAQITVPPGNGFNGGFIYYPTDTSHTYGAVAIVPGYTALFANEEAWMGPRLASFGFVVIGVETNNRNDYDTARGTQLLAALDYLTNSSAVRDRVDRNRLSVIGHSMGGGGALYAATQRPSLKAAIGLAPFKPSGNLASDNVPTMIIGGINDTTVTPSYLDGLYPTLPASTPGAYIQLANADHLYFTRPNDIELRSQIEWLKIFVDNDTRYTQFLCPSIKDTTGIVRSSVKCSTIPSGGSTPPSSPSVPPSSPPSGPQRILGSQSGRCVDVPNATHDNGTRVQLYDCNGQANQQWTYTSSKQLTVYGNVCLDAAGSGNGSAVQIYSCNGQPNQQWNVNANGTITGVQSGRCLDVWGTGNGQQFQLWDCNGQANQRFGLS [ESM074]” the “purified protein yield per well” value was < 25 µg.
In the case of “MCHISAPVPPRAPGCPQFAHWLEVRAVLGSNGAFPTSGRTGADPSGARGTGGRWRRGVAALSTAAVLGALTVVGAVQSASGADNPYQRGPDPTASYVSGSRGSFATAQVSVPAGNGFGGGVIYHPTDTTQGTFGAIAVVPGYTATWAAEGAWMGHWLASFGFVVIGIDTNGREDWDTARGTQLLAALDYLTQRSSVRDRVDASRTAVMGHSMGGGGAMYAALQRPSLKTTVGLAPFSPSQNLTNLRVPAMLLSGQNDTTTTPSSIVNLYNGIPAATEKAYLELSGVGHSFPTSSNPTMMRNVIPWLKIFIDSDTRYTQFLCPLSNSNGIRSYQNTCPLVPSSVPTTSSTTTSTSTTTTTTTTTTTTTTTSVPVGACSASFRTTNTWPGGYQGEVTVTAGSSAVNGWTVQWTLDSGQSISQVWNGTLSVSGSAVSVRNVSYNGSLPPNASATFGFIGGGSPSTSPFTCTSP [ESM077]”, the “purified protein yield per well” value is reported as < 25 µg.
With “MEAIVRRGGTRGQVTGILVAVLAMVVALAGAVLAARPALAQPRDTAPGNPYQRGPDPTVAMIEASAGPFATASTSVPAGHGFNGGTVYYPTDTSLGTWGALAIVPGYSALFANEEAWMGPWLASFGFVVIGVETTTRTDSADARGTELLAALNYLTTQSPVRDRVDPNRLSVLGHSAGGAGAMLAAERQPTLKAAVGLAPGSPVGNLSLAADTVPTMVIGGQNDAVVTPSYLSGLYATMPASTQSDFAQVAGADHVYYTHPNNVEMKLLIPWLKTFLDNDTRYTPFLCPAPPDPSSISLYTPKCPYVPGGSAPGGGNTGALHAVGAAKCLAAPSTGAPGAQVTIGTCGGQAGQIWTHTAAAQLTVTLGGATLCLDASGQGSSPGTKVIVWSCNGQVNQQWNLNADGTVTGAQSGLCLDVTGASTADGAPVELWSCNGGGNQQWHLG [TEP068]” the “purified protein yield per well” value was < 25 µg.
With “MFSASTFAYNPAPPPPSPTPTPTPGPLPGQPNDGFQRGPNPSVSLLEAERGPFSVRNARVSSSVRGFGGGTIYYPTGTTGTMGAIVVIPGYVSPESSIAWWGPKMASHGFVVMTIATNRTTDQPSSRATQINAALDYLISQNSTSGSPVRNMIDTDRLGVMGWSMGGGGTLRVASQNRLKAAIPLAPYDTISFRNVDAPTLIFGCESDTVAPVRNHASPFYNQIPAGTDKAFVELNGGSHTCANGGNQYNDVLSRLGVSWMKRHLDNDTRYSQFLCGPNHTSDRDISEYRGNCPY [DP070]” the “purified protein yield per well” value was < 25 µg.
In the case of “MGFGGGTIYYPTTSGQYGAIAVCPGFTGTSSSISWFARRLATHGFVTIAMNTTTTLDYPSSRATQLAAALRYLLNSSSSTIRSRIRTADRGVAGHSMGGGGTLIASANDSTLRAGIPMTPWNTYTSFSSVRVPQMIFGADGDTIAPYATHARPFYNSISLAEKAYALLNGAGHFTPNSTDQRIRRYGVAFAKRFVDGDTRYNPFLCGAEHTAYATSSRFQTYLSNCPY [ESM185]”, the “purified protein yield per well” value is reported as < 25 µg.
For “MGPWLASFGFVVLGIETNSRTDGADARATQLLAGLDYLTRTSPVRSRVDPNRLSVMGHSAGGAGTLLAALRRPSLRTAVGLAPGTPGNNLNMSTTQVPTLLLSGQNDGTVTPSYVQGIYNTLPAGVEHAWAELAGNDHLSFTRSNPTEMRLLIPWLKIFLDYDTRYTQFLCPLSNSTGVSRYSSTCPLVPPGGPTVPPTTTPPPTTPPPTTPPTTPPPTTPPPTTPPPGTACTATYRTIGSWSGGFQGEVTVTAGSAAVDGWTARWQLASGQGISQVWNGTLSTSGTTVTVRNADYNGTLAPGTSTTFGFLGTGTPNSPSPTCTSP [ESM008]”, the “purified protein yield per well” value was < 25 µg.
In the case of “MGSNPYQRGPDPTTSSLEASRGPFSVASFTVSRPSGYGAGTVYYPTNAGGKVGAIAIVPGYTARQSSINWWGPRLASHGFVVITIDTNSTLDQPSSRSSQQMAALRQVVSLSGTSSSPIYNKVDTSRLGVMGWSMGGGGSLISARNNPSLKAAAPQAPWNSSKNFSSVTVPTLIIACENDTIAPVNSHALPFYNSMSRNPKQYLEINGGSHSCANSGNSNQALIGKKGVAWMKRFMDNDTRYSSFACSNPNSSSVSDFRTENCSAS [TEP184]”, the “purified protein yield per well” value is reported as < 25 µg.
In the case of “MGVRYPEQGGFGGVAAVPGYNSAEKAVAWLGPRLASQGFVVITIATKGRSDQPTARGKQLLAALDYLTAKSPAAVRQRLDPQRLAVTGHSMGGGGSLYAAWTRPGLKAAVPLAPWHSIKNWSGITVPTLVQGGTSDDVAPVGTHAEPIYRSLTGARERAYAESAGADHGTFVREDPLIGALTVAWLKRFVDDDARYEQFLCPAPADPGLTEYRHSCPSS [TEP121]”, the “purified protein yield per well” value is reported as < 25 µg.
For “MHPSFPESEDPAPAARHSAAPLSRDCAHPPARRSTHRTAHRIAHRTARPDRSRRRIRGVLAAATAALLAVAGLTLIPNASAAENPFERGPAPSASSLAAARGPFATSQVTVSSRDASGFGGGTIYFPTSGDEGTFGAVAVAPGFTASRSSMAWLGPRLASQGFIVFNIDTITRSDQPASRGRQLLAALDFLVERSPIRDRVDPDRLAVMGHSMGGGGALEAAESRPTLRAAIPLTPWNLNKNWSRVQVPTMVIGAERDTIASVRFHSEPFFDSLPSDLDKAYLELNNASHFAPNIPNATISSFSVAWLKRFVDDDTRYEQFLCPPPRPAGEISEYQDTCARAS [TEP191]”, the “purified protein yield per well” value was < 25 µg.
